Experimental data as given in paper PMC5407770, “Pyridoxal phosphate synthases PdxS/PdxT are required for Actinobacillus pleuropneumoniae viability, stress tolerance and virulence” (PLoS ONE, 2017).

How the values were obtained:
PdxS = target: T1, PdxS (Actinobacillus pleuropneumoniae, UniProt B3GXB6); test: PLP formation assay, OD414; assay type: biochemical; conditions: 50 mM Tris-HCl pH 8.0, 37°C, PdxS alone, 10 mM ammonium sulfate in place of glutamine
T1 construct: full-length ORF (888 bp), pET22b(+) NdeI/XhoI, His6-tag kept, E. coli BL21(DE3); PdxS alone, without PdxT

O=CC(O)COP(=O)(O)O = test: purified protein; conditions: 50 mM Tris-HCl pH 8.0, 37°C, PdxS + PdxT mixture, co-substrates ribose 5-phosphate and glutamine, glyceraldehyde 3-phosphate 0–1.0 mM (DL form per methods)
NC(=O)CC[C@H](N)C(=O)O = test: purified protein; conditions: 50 mM Tris-Cl pH 8.0, 37°C, PdxS + PdxT mixture, glutamine 0–15 mM

T1 sequence (B3GXB6 whole entry): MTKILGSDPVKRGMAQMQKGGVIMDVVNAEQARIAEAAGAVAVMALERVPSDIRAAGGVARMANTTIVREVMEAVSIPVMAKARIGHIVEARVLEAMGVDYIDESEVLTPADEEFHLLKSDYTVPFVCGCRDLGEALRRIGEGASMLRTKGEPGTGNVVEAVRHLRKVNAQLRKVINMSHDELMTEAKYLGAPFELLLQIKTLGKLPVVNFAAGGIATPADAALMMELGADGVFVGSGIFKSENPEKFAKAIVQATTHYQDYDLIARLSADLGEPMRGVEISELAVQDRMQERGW

O=CC(O)COP(=O)(O)O (racemic) [glyceraldehyde 3-phosphate]
PLP formation assay, OD414 (PdxS; 0.5 mM ribose 5-phosphate): the individual PdxS could produce PLP in the addition of ammonium

PLP synthase PdxS and PdxT (PLP synthesis activity) (Actinobacillus pleuropneumoniae serovar 7 str. AP76)
Km (O=CC(O)COP(=O)(O)O): 175.7 ± 23.0 µM | kcat (O=CC(O)COP(=O)(O)O): 0.000383 ± 1.83e-05 s⁻¹

PdxS and PdxT (PLP synthase; glutaminase activity of PdxT with PdxS) (Actinobacillus pleuropneumoniae serovar 7 str. AP76)
Km (NC(=O)CC[C@H](N)C(=O)O): 1720 ± 140 µM | kcat (NC(=O)CC[C@H](N)C(=O)O): 0.102 ± 0.00233 s⁻¹

O=P(O)(O)OC[C@H]1OC(O)[C@H](O)[C@@H]1O (stereo partly drawn) [ribose 5-phosphate]
PLP formation assay, OD414 (PdxS; 1 mM DL-glyceraldehyde 3-phosphate): the individual PdxS could produce PLP in the addition of ammonium
